# B1: Segment polarity protein dishevelled homolog DVL-2 (Mus musculus), Q60838 (parent)
# chain: MAGSSAGGGGVGETKVIYHLDEEETPYLVKIPVPAERITLGDFKSVLQRPAGAKYFFKSMDQDFGVVKEEISDDNARLPCFNGRVVSWLVSSDTPQPEVAPPAHESRTELVPPPPPLPPLPPERTSGIGDSRPPSFHPNVSSSHENLEPETETESVVSLRRDRPRRRDSSEHGAGGHRPGGPSRLERHLAGYESSSTLMTSELESTSLGDSDEDDTMSRFSSSTEQSSASRLLKRHRRRRKQRPPRMERTSSFSSVTDSTMSLNIITVTLNMEKYNFLGISIVGQSNERGDGGIYIGSIMKGGAVAADGRIEPGDMLLQVNDMNFENMSNDDAVRVLRDIVHKPGPIVLTVAKCWDPSPQAYFTLPRNEPIQPIDPAAWVSHSAALTGAFPAYPGSSSMSTITSGSSLPDGCEGRGLSVHMDMASVTKAMAAPESGLEVRDRMWLKITIPNAFLGSDVVDWLYHHVEGFPERREARKYASGLLKAGLIRHTVNKITFSEQCYYVFGDLSGGCESYLVNLSLNDNDGSSGASDQDTLAPLPGATPWPLLPTFSYQYPAPHPYSPQPPPYHELSSYTYGGGSASSQHSEGSRSSGSTRSDGGAGRTGRPEERAPESKSGSGSESELSSRGGSLRRGGEPGGTGDGGPPPSRGSTGAPPNLRALPGLHPYGAPSGMALPYNPMMVVMMPPPPPPVSTAVQPPGAPPVRDLGSVPPELTASRQSFHMAMGNPSEFFVDVM
# Variants of: B1
# Conditions: with Ankrd6, Q69ZU8-1
# Chain of Ankrd6, Q69ZU8-1 (Q69ZU8 whole entry): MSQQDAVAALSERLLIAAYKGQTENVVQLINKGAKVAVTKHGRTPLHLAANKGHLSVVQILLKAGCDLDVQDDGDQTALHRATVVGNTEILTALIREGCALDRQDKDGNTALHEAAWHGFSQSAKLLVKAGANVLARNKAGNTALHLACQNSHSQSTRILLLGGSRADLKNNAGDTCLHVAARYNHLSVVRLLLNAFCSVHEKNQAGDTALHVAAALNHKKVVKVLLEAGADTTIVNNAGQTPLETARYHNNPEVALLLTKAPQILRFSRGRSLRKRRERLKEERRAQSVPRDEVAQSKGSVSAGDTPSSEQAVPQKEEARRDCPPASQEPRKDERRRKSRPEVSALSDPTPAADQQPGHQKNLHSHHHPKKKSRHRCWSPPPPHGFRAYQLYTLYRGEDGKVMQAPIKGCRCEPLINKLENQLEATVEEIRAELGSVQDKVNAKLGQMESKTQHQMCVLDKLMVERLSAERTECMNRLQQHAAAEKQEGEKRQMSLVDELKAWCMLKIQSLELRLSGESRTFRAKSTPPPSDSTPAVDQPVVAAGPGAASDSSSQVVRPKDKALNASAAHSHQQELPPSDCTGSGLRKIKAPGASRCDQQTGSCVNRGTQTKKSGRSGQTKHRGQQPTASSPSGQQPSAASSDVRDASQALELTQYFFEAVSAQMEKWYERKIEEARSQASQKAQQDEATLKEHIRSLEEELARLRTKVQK
row,effect of a mutation on the interaction,Variant
1,decreasing interaction strength,K446M
